# Positions count from the first letter of the chain named.
# B1: C1554 IgG (antibody, V domains shown)
# VH: QVQLVQSGAEVKKPGASVKVSCKVSGYTLPEISIHWVREAPGKGLEWMGGFDPEDGETIYSQRFQGRVTMTEDTSTDTAYMELSSLRSEDTAVYYCAASSPFSGGWFHPWGQGTLVTVSS
# VL: QSALTQPASVSGSPGQSITISCTETSSDVGNYNLVSWYQQHPGKAPKLVIYEGTKRPSGVSNRFSASKSGNTASLTISELQAEDEANYYCCSYARSGVFGGGTKLTVL
# B2: C1520 IgG (antibody, V domains shown)
# VH: EVQLVESGGGLVQPGGSLRLACVASGFTFSIYEMNWVRQAPGKGLEWVSYITTSGHARYNADSVKGRFTISRDNSKNSFYLQMNSLRAEDTAIYYCARPQYHYYDTSTYHSYGFDIWGQGTMVTVSS
# VL: QLVLTQSPSASASLGASVNLTCTLSSGHNSYAIAWHQQQPEKGPRYLMSLNSDGSHTKGDGIPDRFSGSSSGAERFLTISSLQSEDEADYYCQTWDTGIRVFGGGTRLTVL
# B3: C1704 IgG (antibody, V domains shown)
# VH: QVQLVQSGAEVKKPGASVKVSCKVSGYTLTELSIHWVRQAPGKGLEWMGSFDPEDGETICAQKFQGRVTMTEDTSTDTAYMELSSLRSEDTAVYYCATEWRGCSDTSCQGTNWFDPWGQGTLVTVSS
# VL: B2 VL with L2P, N19K, N29S, S30T, S49K, T57N, F76Y, D96G, I99V, R107K
# B4: C1621 IgG (antibody, V domains shown)
# VH: EVQLVESGGGLVKPGGSLRLSCAASGFSFNNSNMNWVRQAPGKGLEWVSSISSSSNYIYYVDSVKGRFTISRDNAKNSLYLQMSSLRVEDTAVYYCASAQSSARWGGYYQYAMDVWGQGTTVTVSS
# VL: EIVMTQSPATLSVSPGERATLSCRASQSVSSSLAWYQQKPGQAPRLLIYDASTRATGIPARFSGRGSGTEFTLTISSLQSEDFAVYYCQQYYNWPPWTFGQGTKVEI
# B5: C1557 IgG (antibody, V domains shown)
# VH: QVQLVQSGAEVRKPGASVKVSCKVSGYTLTELSMHWVRQSPGKGLEWMGSFDPDDGETFYAQKFQGRITMSEDTSTDTAYMELSSLRSEDTAVYFCATDSNMIVVRGNYYYSGLDVWGQGTTVTVSS
# VL: EIVMTQSPATLSVSPGERATLSCRASQSVAGNLAWYQQKPGLAPRLLIQGPSTRATGIPARFSGSGSGTEFTLTISSLQSEDFAVYYCHQYNNWPWTFGQGTKVEIK
# B6: C1791 IgG (antibody, V domains shown)
# VH: EVQLLESGGGLVQPGGSRRLSCAASGFTFSIAAMSWVRQAPGKGLEWVSVISTSGGTSYYADSVRGRFTISRDNSQNTLYLQMNSLSAEDTAIYYCAKDLGSYFPDYWGQGTLVTVSS
# VL: DIQMTQSPSSLSASVGDRVTITCRASQGIRNDIGWYQQKPGKAPKRLIHAASSLQSGVPSRFSGSGSGTEFTLTISSLQPEDFATYYCLQYNSYPRVTFGPGTKVDIK
# B7: C1717 IgG (antibody, V domains shown)
# VH: QVQLVQSGAEVKKPGSSVKVSCKTSGGTFNSFAINWVRQAPGQGPEWMGRVIPVLEIANYAQKFQGRITITADKSTSTAYMELSSLTSEDTAIYYCARHHIAVAQPYFDYWGQGTLVTVSS
# VL: not shown
# Biological target: SARS-CoV-2 Wuhan-Hu-1 NTD (SARS-CoV-2 Wuhan-Hu-1, UniProt P0DTC2)
# Experiment: BLI
row,Binder,binding result
1,B1,binds
2,B2,binds
3,B3,binds
4,B4,binds
5,B5,binds
6,B6,binds
7,B7,binds

# Reference: article PMC8986478 (Immunity, 2022)
